PMC7407080, “Methylglyoxal Detoxification Revisited: Role of Glutathione Transferase in Model Cyanobacterium Synechocystis sp. Strain PCC 6803” (mBio, 2020)

Columns and labels:
Sll0067 GST [1] = target: T1, Sll0067 GST (Synechocystis sp. PCC 6803, UniProt Q55139); experiment: initial velocity of GSH-MG conjugation with added S-lactoylGSH; assay type: biochemical; conditions: activator; co-substrates GSH and MG
T1 sequence (Q55139 1-184): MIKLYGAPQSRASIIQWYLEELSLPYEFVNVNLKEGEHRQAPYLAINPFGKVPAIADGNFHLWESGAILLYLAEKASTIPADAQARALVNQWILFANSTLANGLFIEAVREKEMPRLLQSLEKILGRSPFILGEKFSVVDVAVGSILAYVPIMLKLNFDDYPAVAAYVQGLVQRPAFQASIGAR

[2] = target: Sll0067 glutathione transferase (GST) of Synechocystis sp. strain PCC 6803, His-tagged recombinant protein (Synechocystis sp. strain PCC 6803); experiment: SEC-MALS; 300 ug of purified protein in 300 ul injected at 0.5 ml/min on an analytical Superdex 200 10/300 column, 30 mM Tris-HCl pH 8.0, 200 mM NaCl; miniDAWN TREOS detector and T-rEX refractometer
Sll0067 GST [3] = target: T1, Sll0067 GST; experiment: absorbance at […] nm, GSH conjugation, Michaelis-Menten fit; assay type: biochemical; conditions: 1 mM GSH; 30 mM Tris-HCl pH 8.0, 1 mM EDTA; 25°C; read-out: affinity (apparent Km)
[4] = substrate: CC(=O)C=O; experiment: two-substrate steady-state kinetics, remaining MG by DDP fluorescence; secondary plot, allosteric sigmoidal fit; assay type: biochemical, Synechocystis sp. PCC 6803; conditions: varied GSH, 100 mM potassium phosphate, 1 mM EDTA, pH 7.5, 30°C, Hill number 1.873 ± 0.261
Description: two-substrate steady-state kinetics, remaining MG by DDP fluorescence; secondary plot, allosteric sigmoidal fit on Sll0067 GST

purified protein [5] = substrate: S=C=NCc1ccccc1; experiment: purified protein; assay type: biochemical, Synechocystis sp. PCC 6803; conditions: 1 mM GSH, 100 mM phosphate pH 6.5, 25°C
purified protein [6] = substrate: S=C=NCCc1ccccc1; experiment: purified protein; assay type: biochemical, Synechocystis sp. PCC 6803; conditions: 1 mM GSH, 100 mM phosphate pH 6.5, 25°C

`C[C@@H](O)C(=O)SC[C@H](NC(=O)CC[C@H](N)C(=O)O)C(=O)NCC(=O)O` [S-D-lactoylglutathione] was tested, and the “initial velocity of GSH-MG conjugation with added S-lactoylGSH” value (Sll0067 GST [1]) was “All measured initial velocities of Sll0067 activity were increased by S-lactoylGSH”.

“Sll0067 glutathione transferase (GST) of Synechocystis sp. strain PCC 6803, His-tagged recombinant protein (enzyme)” showed a stoichiometry N [2] of 2.

For `O=[N+]([O-])c1ccc(Cl)c([N+](=O)[O-])c1` [1-chloro-2,4-dinitrobenzene], the Km (Sll0067 GST [3]) was 3800 µM.

B1: Sll0067 GST (Synechocystis sp. PCC 6803 substr. Kazusa) (protein)
chain: MIKLYGAPQSRASIIQWYLEELSLPYEFVNVNLKEGEHRQAPYLAINPFGKVPAIADGNFHLWESGAILLYLAEKASTIPADAQARALVNQWILFANSTLANGLFIEAVREKEMPRLLQSLEKILGRSPFILGEKFSVVDVAVGSILAYVPIMLKLNFDDYPAVAAYVQGLVQRPAFQASIGAR
Work on B1 yielded a K0.5 [4] of 221.7 ± 26.3 µM, a Km (purified protein [5]) of 82.0 µM and a Km (purified protein [6]) of 31.4 µM.
